We go through three molecules from PMC3411838.

The chains are these.
T1: Myc-tagged CARMA1-CARD (wild type) (mouse) (UniProt Q8CIS0)
T1 sequence: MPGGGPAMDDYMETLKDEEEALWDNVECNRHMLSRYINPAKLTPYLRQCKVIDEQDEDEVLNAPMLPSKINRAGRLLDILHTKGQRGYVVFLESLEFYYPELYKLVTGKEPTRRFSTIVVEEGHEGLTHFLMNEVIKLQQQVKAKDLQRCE

B1: full-length BCL10 E50A (pEGFP-C1) (natural protein)
chain: MEAPAPSLTEEDLTEVKKDALENLRVYLCEKIIAERHFDHLRAKKILSRADTEEISCRTSSRKRAGKLLDYLQENPRGLDTLVESIRREKTQSFLIQKITDEVLKLRNIKLEHLKGLKCSSCEPFAAGATNNLSRCNSDESNLSEKQRASTVMYHPEGESSTAPFFSMASSLNLPVLEVGRTENSSFSSATLPRPGDPGAPPLPPDLRLEEGGSCGNSSEMFLPLRSRALSRQ
B2: full-length BCL10 E54A (pEGFP-C1) (natural protein)
chain: MEAPAPSLTEEDLTEVKKDALENLRVYLCEKIIAERHFDHLRAKKILSREDTEAISCRTSSRKRAGKLLDYLQENPRGLDTLVESIRREKTQSFLIQKITDEVLKLRNIKLEHLKGLKCSSCEPFAAGATNNLSRCNSDESNLSEKQRASTVMYHPEGESSTAPFFSMASSLNLPVLEVGRTENSSFSSATLPRPGDPGAPPLPPDLRLEEGGSCGNSSEMFLPLRSRALSRQ
B3: full-length BCL10 E53A (pEGFP-C1) (natural protein)
chain: MEAPAPSLTEEDLTEVKKDALENLRVYLCEKIIAERHFDHLRAKKILSREDTAEISCRTSSRKRAGKLLDYLQENPRGLDTLVESIRREKTQSFLIQKITDEVLKLRNIKLEHLKGLKCSSCEPFAAGATNNLSRCNSDESNLSEKQRASTVMYHPEGESSTAPFFSMASSLNLPVLEVGRTENSSFSSATLPRPGDPGAPPLPPDLRLEEGGSCGNSSEMFLPLRSRALSRQ

A value given as a limit tells only on which side of the number the result lay.

The assay concerns the target T1, Myc-tagged CARMA1-CARD (wild type) (mouse).
Molecule B1 returned an NF-κB activation-dependent dual luciferase reporter in HEK293T, full-length BCL10 mutant against wild type (CARMA1 not co-transfected) of under 40%. The figure for B2 is under 40%.

In the case of B3, the NF-κB activation-dependent dual luciferase reporter in HEK293T, full-length BCL10 mutant against wild type (CARMA1 not co-transfected) is under 40%.
